One test deals with FLAG-seipin-Myc (human) (UniProt Q96G97). Description: atomic force microscopy (AFM); complexes isolated by anti-Myc immunoaffinity from co-transfected tsA 201 cells and eluted; tapping mode in air; particle volumes and decorations.
Test [1] concerns the target Seipin-Myc (wild type) (human) (UniProt Q96G97). Description: atomic force microscopy (AFM); complexes isolated by sequential anti-FLAG and anti-Myc immunoaffinity from triply transfected tsA 201 cells; tapping mode in air.

The substance “FLAG-seipin-Myc (from UniProt Q96G97 1-398) (natural protein)” came in with a stoichiometry N with FLAG-seipin-Myc (human) of 12.
“HA-lipin 1α (from UniProt Q14693 1-890) (enzyme)”: the percent of seipin particles doubly decorated by AGPAT2 plus lipin 1 in test [1] was 10.1%. In the test with FLAG-seipin-Myc (human), the percent of seipin particles doubly decorated was 9%.
In the case of “FLAG-AGPAT2 (from UniProt O15120 24-278) (enzyme)”, the percent of seipin particles doubly decorated by AGPAT2 plus lipin 1 in test [1] is 10.1%. In the test with FLAG-seipin-Myc (human), this substance registered a percent of seipin particles doubly decorated of 12.8% and a percent of seipin particles triply decorated of 1%.
The substance “Seipin-Myc (wild type) (from UniProt Q96G97 1-398) (natural protein)” came in with a stoichiometry N in test [1] of 12.

(Values after article PMC4338318.)
